Fold change of affinity data for 20 molecules are collected here from patent publication US20210388087A1.

For this assay, the target named is Human CD137 ECD (human). Kind of assay: single mutant vs template dBBDu183H.
Human CD137 ECD (human), sequence (chain, as listed by the source limits assumed): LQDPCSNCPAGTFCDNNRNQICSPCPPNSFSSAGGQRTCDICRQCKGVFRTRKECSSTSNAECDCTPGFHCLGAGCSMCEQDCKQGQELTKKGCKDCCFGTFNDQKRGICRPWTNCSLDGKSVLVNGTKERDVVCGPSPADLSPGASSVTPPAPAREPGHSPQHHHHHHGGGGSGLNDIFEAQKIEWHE

B1: H183/L072 VH M34K (antibody, name in Kabat numbering, V domains shown)
VH: QVQLVESGGGLVQPGRSLRLSCAASGFTFSNAWKHWVRQAPGKGLEWVAQIKDKGNAYAAYYAPSVKGRFTISRDDSKNSIYLQMNSLKTEDTAVYYCHYVHYASASTVLPAFGVDAWGQGTTVTVSS
VL: DIVMTQSPLSLPVTPGEPASISCQASQELVHMNRNTYLHWYQQKPGQAPRLLIYKVSNRFPGVPDRFSGSGSGTDFTLKISRVEAEDVGVYYCAQGTSVPFTFGQGTKLEIK
In the case of B1, the fold change of affinity came to 0 fold.

B2: H183/L072 VH D52aF (antibody, name in Kabat numbering, V domains shown)
VH: QVQLVESGGGLVQPGRSLRLSCAASGFTFSNAWMHWVRQAPGKGLEWVAQIKFKGNAYAAYYAPSVKGRFTISRDDSKNSIYLQMNSLKTEDTAVYYCHYVHYASASTVLPAFGVDAWGQGTTVTVSS
VL: DIVMTQSPLSLPVTPGEPASISCQASQELVHMNRNTYLHWYQQKPGQAPRLLIYKVSNRFPGVPDRFSGSGSGTDFTLKISRVEAEDVGVYYCAQGTSVPFTFGQGTKLEIK
B2: the fold change of affinity turned out to be 0 fold.

B3: H183/L072 VH N53R (antibody, name in Kabat numbering, V domains shown)
VH: QVQLVESGGGLVQPGRSLRLSCAASGFTFSNAWMHWVRQAPGKGLEWVAQIKDKGRAYAAYYAPSVKGRFTISRDDSKNSIYLQMNSLKTEDTAVYYCHYVHYASASTVLPAFGVDAWGQGTTVTVSS
VL: DIVMTQSPLSLPVTPGEPASISCQASQELVHMNRNTYLHWYQQKPGQAPRLLIYKVSNRFPGVPDRFSGSGSGTDFTLKISRVEAEDVGVYYCAQGTSVPFTFGQGTKLEIK
With B3, the fold change of affinity worked out at 0 fold.

B4: H183/L072 VH W33F (antibody, name in Kabat numbering, V domains shown)
VH: QVQLVESGGGLVQPGRSLRLSCAASGFTFSNAFMHWVRQAPGKGLEWVAQIKDKGNAYAAYYAPSVKGRFTISRDDSKNSIYLQMNSLKTEDTAVYYCHYVHYASASTVLPAFGVDAWGQGTTVTVSS
VL: DIVMTQSPLSLPVTPGEPASISCQASQELVHMNRNTYLHWYQQKPGQAPRLLIYKVSNRFPGVPDRFSGSGSGTDFTLKISRVEAEDVGVYYCAQGTSVPFTFGQGTKLEIK
For the molecule B4, the fold change of affinity is 0 fold.

B5: H183/L072 VH A56F (antibody, name in Kabat numbering, V domains shown)
VH: QVQLVESGGGLVQPGRSLRLSCAASGFTFSNAWMHWVRQAPGKGLEWVAQIKDKGNAYFAYYAPSVKGRFTISRDDSKNSIYLQMNSLKTEDTAVYYCHYVHYASASTVLPAFGVDAWGQGTTVTVSS
VL: DIVMTQSPLSLPVTPGEPASISCQASQELVHMNRNTYLHWYQQKPGQAPRLLIYKVSNRFPGVPDRFSGSGSGTDFTLKISRVEAEDVGVYYCAQGTSVPFTFGQGTKLEIK
Regarding B5, the fold change of affinity was determined as 0 fold.

B6: H183/L072 VH I51F (antibody, name in Kabat numbering, V domains shown)
VH: QVQLVESGGGLVQPGRSLRLSCAASGFTFSNAWMHWVRQAPGKGLEWVAQFKDKGNAYAAYYAPSVKGRFTISRDDSKNSIYLQMNSLKTEDTAVYYCHYVHYASASTVLPAFGVDAWGQGTTVTVSS
VL: DIVMTQSPLSLPVTPGEPASISCQASQELVHMNRNTYLHWYQQKPGQAPRLLIYKVSNRFPGVPDRFSGSGSGTDFTLKISRVEAEDVGVYYCAQGTSVPFTFGQGTKLEIK
Regarding B6, the fold change of affinity amounted to 0 fold.

B7: H183/L072 VH H35R (antibody, name in Kabat numbering, V domains shown)
VH: QVQLVESGGGLVQPGRSLRLSCAASGFTFSNAWMRWVRQAPGKGLEWVAQIKDKGNAYAAYYAPSVKGRFTISRDDSKNSIYLQMNSLKTEDTAVYYCHYVHYASASTVLPAFGVDAWGQGTTVTVSS
VL: DIVMTQSPLSLPVTPGEPASISCQASQELVHMNRNTYLHWYQQKPGQAPRLLIYKVSNRFPGVPDRFSGSGSGTDFTLKISRVEAEDVGVYYCAQGTSVPFTFGQGTKLEIK
Consider B7, for which the fold change of affinity came to 0 fold.

B8: H183/L072 VH D52aR (antibody, name in Kabat numbering, V domains shown)
VH: QVQLVESGGGLVQPGRSLRLSCAASGFTFSNAWMHWVRQAPGKGLEWVAQIKRKGNAYAAYYAPSVKGRFTISRDDSKNSIYLQMNSLKTEDTAVYYCHYVHYASASTVLPAFGVDAWGQGTTVTVSS
VL: DIVMTQSPLSLPVTPGEPASISCQASQELVHMNRNTYLHWYQQKPGQAPRLLIYKVSNRFPGVPDRFSGSGSGTDFTLKISRVEAEDVGVYYCAQGTSVPFTFGQGTKLEIK
As to B8, the fold change of affinity was 0 fold.

B9: H183/L072 VH Q50R (antibody, name in Kabat numbering, V domains shown)
VH: QVQLVESGGGLVQPGRSLRLSCAASGFTFSNAWMHWVRQAPGKGLEWVARIKDKGNAYAAYYAPSVKGRFTISRDDSKNSIYLQMNSLKTEDTAVYYCHYVHYASASTVLPAFGVDAWGQGTTVTVSS
VL: DIVMTQSPLSLPVTPGEPASISCQASQELVHMNRNTYLHWYQQKPGQAPRLLIYKVSNRFPGVPDRFSGSGSGTDFTLKISRVEAEDVGVYYCAQGTSVPFTFGQGTKLEIK
With B9, the fold change of affinity came to 0 fold.

B10: H183/L072 VH N31R (antibody, name in Kabat numbering, V domains shown)
VH: QVQLVESGGGLVQPGRSLRLSCAASGFTFSRAWMHWVRQAPGKGLEWVAQIKDKGNAYAAYYAPSVKGRFTISRDDSKNSIYLQMNSLKTEDTAVYYCHYVHYASASTVLPAFGVDAWGQGTTVTVSS
VL: DIVMTQSPLSLPVTPGEPASISCQASQELVHMNRNTYLHWYQQKPGQAPRLLIYKVSNRFPGVPDRFSGSGSGTDFTLKISRVEAEDVGVYYCAQGTSVPFTFGQGTKLEIK
For the molecule B10, the fold change of affinity was found to be 0 fold.

B11: H183/L072 VH Y55R (antibody, name in Kabat numbering, V domains shown)
VH: QVQLVESGGGLVQPGRSLRLSCAASGFTFSNAWMHWVRQAPGKGLEWVAQIKDKGNARAAYYAPSVKGRFTISRDDSKNSIYLQMNSLKTEDTAVYYCHYVHYASASTVLPAFGVDAWGQGTTVTVSS
VL: DIVMTQSPLSLPVTPGEPASISCQASQELVHMNRNTYLHWYQQKPGQAPRLLIYKVSNRFPGVPDRFSGSGSGTDFTLKISRVEAEDVGVYYCAQGTSVPFTFGQGTKLEIK
As for B11, the fold change of affinity is 0 fold.

B12: H183/L072 VH N53K (antibody, name in Kabat numbering, V domains shown)
VH: QVQLVESGGGLVQPGRSLRLSCAASGFTFSNAWMHWVRQAPGKGLEWVAQIKDKGKAYAAYYAPSVKGRFTISRDDSKNSIYLQMNSLKTEDTAVYYCHYVHYASASTVLPAFGVDAWGQGTTVTVSS
VL: DIVMTQSPLSLPVTPGEPASISCQASQELVHMNRNTYLHWYQQKPGQAPRLLIYKVSNRFPGVPDRFSGSGSGTDFTLKISRVEAEDVGVYYCAQGTSVPFTFGQGTKLEIK
As to B12, the fold change of affinity was determined as 0 fold.

B13: H183/L072 VH I51R (antibody, name in Kabat numbering, V domains shown)
VH: QVQLVESGGGLVQPGRSLRLSCAASGFTFSNAWMHWVRQAPGKGLEWVAQRKDKGNAYAAYYAPSVKGRFTISRDDSKNSIYLQMNSLKTEDTAVYYCHYVHYASASTVLPAFGVDAWGQGTTVTVSS
VL: DIVMTQSPLSLPVTPGEPASISCQASQELVHMNRNTYLHWYQQKPGQAPRLLIYKVSNRFPGVPDRFSGSGSGTDFTLKISRVEAEDVGVYYCAQGTSVPFTFGQGTKLEIK
Turning to B13, the fold change of affinity is 0 fold.

B14: H183/L072 VH D52aK (antibody, name in Kabat numbering, V domains shown)
VH: QVQLVESGGGLVQPGRSLRLSCAASGFTFSNAWMHWVRQAPGKGLEWVAQIKKKGNAYAAYYAPSVKGRFTISRDDSKNSIYLQMNSLKTEDTAVYYCHYVHYASASTVLPAFGVDAWGQGTTVTVSS
VL: DIVMTQSPLSLPVTPGEPASISCQASQELVHMNRNTYLHWYQQKPGQAPRLLIYKVSNRFPGVPDRFSGSGSGTDFTLKISRVEAEDVGVYYCAQGTSVPFTFGQGTKLEIK
In the case of B14, the fold change of affinity came to 0 fold.

B15: H183/L072 VH F29R (antibody, name in Kabat numbering, V domains shown)
VH: QVQLVESGGGLVQPGRSLRLSCAASGFTRSNAWMHWVRQAPGKGLEWVAQIKDKGNAYAAYYAPSVKGRFTISRDDSKNSIYLQMNSLKTEDTAVYYCHYVHYASASTVLPAFGVDAWGQGTTVTVSS
VL: DIVMTQSPLSLPVTPGEPASISCQASQELVHMNRNTYLHWYQQKPGQAPRLLIYKVSNRFPGVPDRFSGSGSGTDFTLKISRVEAEDVGVYYCAQGTSVPFTFGQGTKLEIK
On to B15, for which the fold change of affinity was determined as 0 fold.

B16: H183/L072 VH M34R (antibody, name in Kabat numbering, V domains shown)
VH: QVQLVESGGGLVQPGRSLRLSCAASGFTFSNAWRHWVRQAPGKGLEWVAQIKDKGNAYAAYYAPSVKGRFTISRDDSKNSIYLQMNSLKTEDTAVYYCHYVHYASASTVLPAFGVDAWGQGTTVTVSS
VL: DIVMTQSPLSLPVTPGEPASISCQASQELVHMNRNTYLHWYQQKPGQAPRLLIYKVSNRFPGVPDRFSGSGSGTDFTLKISRVEAEDVGVYYCAQGTSVPFTFGQGTKLEIK
B16: the fold change of affinity stood at 0 fold.

B17: H183/L072 VH K52F (antibody, name in Kabat numbering, V domains shown)
VH: QVQLVESGGGLVQPGRSLRLSCAASGFTFSNAWMHWVRQAPGKGLEWVAQIFDKGNAYAAYYAPSVKGRFTISRDDSKNSIYLQMNSLKTEDTAVYYCHYVHYASASTVLPAFGVDAWGQGTTVTVSS
VL: DIVMTQSPLSLPVTPGEPASISCQASQELVHMNRNTYLHWYQQKPGQAPRLLIYKVSNRFPGVPDRFSGSGSGTDFTLKISRVEAEDVGVYYCAQGTSVPFTFGQGTKLEIK
On to B17, for which the fold change of affinity was determined as 0 fold.

B18: H183/L072 VH W33R (antibody, name in Kabat numbering, V domains shown)
VH: QVQLVESGGGLVQPGRSLRLSCAASGFTFSNARMHWVRQAPGKGLEWVAQIKDKGNAYAAYYAPSVKGRFTISRDDSKNSIYLQMNSLKTEDTAVYYCHYVHYASASTVLPAFGVDAWGQGTTVTVSS
VL: DIVMTQSPLSLPVTPGEPASISCQASQELVHMNRNTYLHWYQQKPGQAPRLLIYKVSNRFPGVPDRFSGSGSGTDFTLKISRVEAEDVGVYYCAQGTSVPFTFGQGTKLEIK
Regarding B18, the fold change of affinity is 0 fold.

B19: H183/L072 VH H35K (antibody, name in Kabat numbering, V domains shown)
VH: QVQLVESGGGLVQPGRSLRLSCAASGFTFSNAWMKWVRQAPGKGLEWVAQIKDKGNAYAAYYAPSVKGRFTISRDDSKNSIYLQMNSLKTEDTAVYYCHYVHYASASTVLPAFGVDAWGQGTTVTVSS
VL: DIVMTQSPLSLPVTPGEPASISCQASQELVHMNRNTYLHWYQQKPGQAPRLLIYKVSNRFPGVPDRFSGSGSGTDFTLKISRVEAEDVGVYYCAQGTSVPFTFGQGTKLEIK
In the case of B19, the fold change of affinity is 0 fold.

B20: H183/L072 VH N53F (antibody, name in Kabat numbering, V domains shown)
VH: QVQLVESGGGLVQPGRSLRLSCAASGFTFSNAWMHWVRQAPGKGLEWVAQIKDKGFAYAAYYAPSVKGRFTISRDDSKNSIYLQMNSLKTEDTAVYYCHYVHYASASTVLPAFGVDAWGQGTTVTVSS
VL: DIVMTQSPLSLPVTPGEPASISCQASQELVHMNRNTYLHWYQQKPGQAPRLLIYKVSNRFPGVPDRFSGSGSGTDFTLKISRVEAEDVGVYYCAQGTSVPFTFGQGTKLEIK
Consider B20, for which the fold change of affinity was determined as 0 fold.
